{"source": "paper PMC9233695", "about": "“Structural mechanism of protein recognition by the FW domain of autophagy receptor Nbr1” (Nature Communications, 2022)", "molecules": {"B1": {"name": "CtAms1 in the CtAms1-CtNbr1 FW-MBP fusion protein (natural protein, Chaetomium thermophilum, UniProt G0SGP6 1-1079, looked up)", "chain": "MGGETFDVKGPRPNDYPLRAPKPVGQLISHIYKDRIAQFYNGGQYEHQNLRAMMKEDSVSGEPHVQLWVWHAPGQTRPSFEEAVSNQFVKTNVGEWFGPSWTTHWFRVVLTVPEHLQNKRLLEFHWDSNSEGLVWSEDGKPLQGLTGGGERVEWILPDSFRDGKEHTIYIEMACNRMFGNAPGGDSIQPPDPNKYFRLDKAEIVAIDPDARQLWIDIWILQDAAREFPGDSWESHKALQVCNEIIEAFELGNRESLKKCRKIAEQYLGPNVDSPNVYNSGKEPLVYAIGHCHIDSCWLWPFAETKRKVVRSWSSQCDLMDRYPELNFVCSQAQQYKWLKQLYPYAFERVKKKVAEGRFHPIGGSWVEHDTNMPSGESLVRQFLYGQRFYESNFGKRCKTFWLPDTFGYSAQLPQLCRLAGMTRFLTQKLSWNNINRFPHTTFNWVALDGSQVICHMPPSETYTAEAHFGDVKRSMSQHKSLDQDNTSLLVFGKGDGGGGPTWVQIEKLRRCRGISDTVGLLPRVHMGSSVDDFFDRLERKADTFVTWYGELYFELHRGTYTTQAKNKKNNRRAEAKLRDLELLATIASVQDKSYKYPKEEFDAMWENVLLCQFHDCLPGSSIEMAYRESDQMYADVFSTAEKIMKGVSQVLGLEPALNHMSTTNTVALNTLPWPRRELVKISEKEAAVAHGTGPFLKLQKLETTKPLVTLRQVTKGAFVLENSQLRVHVEKGVITSLYDKQANREVIPKGQKANQYVIFDDKPLYWQAWDVEVYHLDTRKELPSGETEVHENTPHRVSVVTRTKVSDKSHIQTIIALNGAVEGEQSWVEVQSKVDWHETMKFLKVEFPVDVRNTEASYETAFGIVRRPTHYNTSWDMAKFEVCAHRWADLSEYGYGVSILNDSKYGFATAGQTMRLSLLRSPKAPDAHADMGTHHIRWAILPHQGSLSHVTIRKAFEFNNPTKLYSSPDAAALVAAPPPVWLTPDSSPAIVLDTVKRGEDDEDVSRGELPARKGQSVILRMYDSLGGLARGTVVTTWPLKKVCKVNLLEDDLEVVPWENGRFTVELRPFEVASYRLVLA", "notes": "full-length Ams1 of Chaetomium thermophilum; the first methionine is processed (density map); model holds residues 2-1079; also called CtAms1_1; CtAms1_3; source: S. pombe (Pnmt1 promoter), fusion protein purified (GFP-Trap beads, released with 3C protease)"}, "B2": {"name": "CtAms1: Chaetomium thermophilum α-mannosidase Ams1 (CTHT_0067100) (protein)", "chain": "B1 chain"}}, "key": {"[1]": {"biological_target": "GST-CtNbr1(635–775) (Chaetomium thermophilum)", "sequence (main, as listed by the source)": "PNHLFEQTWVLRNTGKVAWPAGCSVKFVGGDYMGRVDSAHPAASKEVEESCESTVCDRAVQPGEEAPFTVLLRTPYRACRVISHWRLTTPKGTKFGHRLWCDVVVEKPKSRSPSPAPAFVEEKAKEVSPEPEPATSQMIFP", "assay": "SPR; Biacore T200, 25 °C; GST-FW domain captured by anti-GST antibody on a CM5 chip to about 200 RU; CtAms1 protein flowed, 50 to 1.56 nM; 10 mM HEPES pH 7.4, 150 mM NaCl, 0.05% Tween 20; 1:1 binding model"}, "[2]": {"biological_target": "GST-hNBR1(358-498) (human) (UniProt Q14596)", "sequence (Q14596 358-498)": "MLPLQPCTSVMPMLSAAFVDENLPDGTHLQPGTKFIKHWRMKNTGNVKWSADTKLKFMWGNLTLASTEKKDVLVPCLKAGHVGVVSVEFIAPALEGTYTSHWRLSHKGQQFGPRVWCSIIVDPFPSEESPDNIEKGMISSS", "assay": "SPR; Biacore T200, 25 °C; GST-FW domain captured by anti-GST antibody on a CM5 chip to about 700 RU; synthetic peptide flowed, 100 to 3.13 μM; 10 mM HEPES pH 7.4, 150 mM NaCl, 0.05% Tween 20; steady-state model"}, "[3]": {"biological_target": "GST-CtNbr1(635–775) (Chaetomium thermophilum)", "assay": "SPR; Biacore T200, 25 °C; GST-FW domain captured by anti-GST antibody on a CM5 chip to about 700 RU; synthetic peptide flowed, 100 to 3.13 μM; 10 mM HEPES pH 7.4, 150 mM NaCl, 0.05% Tween 20; steady-state model"}, "[4]": {"biological_target": "the molecule itself", "assay": "cryo-EM structure; CtAms1-CtNbr1 FW-MBP fusion protein, 2.2 Å, D2 symmetry"}, "CtNbr1-FW-D654A": {"biological_target": "CtNbr1-FW-D654A", "assay": "SPR analysis of CtNbr1-FW-D654A with CtAms1 protein", "assay_type": "binding, Chaetomium thermophilum", "conditions": "Biacore T200, 25 °C, GST-CtNbr1 FW D654A mutant captured on CM5 chip, about 200 RU, 10 mM HEPES, pH 7.4, 150 mM NaCl, 0.05% Tween 20, CtAms1 50 to 1.56 nM, performed once", "excerpt": "(§1) Fig. 4 Mutational analysis of interactions between CtAms1 and CtNbr1-FW. a–c Pil1 co-tethering assay. CtNbr1 FW domain and its mutants were fused to Pil1-mCherry and co-expressed with CtAms1-mECitrine or its mutants in S. pombe. Cells were imaged by fluorescence microscopy. Bar, 3 μm. The data shown are representative of two independent experiments with similar results. Source data are provided as a Source Data file. d SPR analysis of the CtNbr1-CtAms1 interaction. GST-tagged CtNbr1 FW domain or its mutants was bound to a CM5 sensor chip. CtAms1 or CtAms1-G2A (twofold serial dilutions from 50 nM to 1.56 nM) flowed through the chip surface. The experiments were performed once. e SPR analysis of the interactions of CtNbr1 and hNBR1 with CtAms1 N-terminal peptides. GST-tagged CtNbr1 FW domain or hNBR1 FW domain was bound to a CM5 sensor chip. Chemically synthesized CtAms1 N-terminal peptides (twofold serial dilutions from 100 μM to 3.13 μM) flowed through the chip surface. […]\n(§2) Wild-type and mutant forms of GST-CtNbr1(635–775) and wild-type GST-hNBR1(358-498) were purified from E. coli, and FLAG2-His6 (FFH)-tagged CtAms1 and CtAms1-G2A were purified from S. pombe. […] The dissociation constants (KD) were calculated by fitting the sensorgrams to a 1:1 binding model (for protein–protein interaction) or a steady-state model (for protein-peptide interaction) using Biacore T200 evaluation software."}, "CtNbr1-FW-D654E": {"tested_on": "CtNbr1-FW-D654E", "assay": "Pil1 co-tethering assay, CtAms1 and mutants with CtNbr1 FW domain D654E", "assay_type": "cell-based, Chaetomium thermophilum", "conditions": "CtNbr1-FW-D654E fused to Pil1-mCherry, CtAms1-mECitrine or mutants, in S. pombe, 30 °C; two independent experiments", "excerpt": "as §1\n(§3) Fission yeast cells were grown to mid-log phase in EMM medium at 30 °C. […] Images were obtained with a 100 × 1.4NA objective and analyzed with the SoftWoRx software.\n(§4) To examine a pair-wise protein-protein interaction, a bait protein was fused to Pil1-mCherry, and a prey protein was fused to mECitrine. Cells co-expressing both proteins were grown to mid-log phase in EMM medium at 30 °C for fluorescence microscopy. […]"}, "CtNbr1-FW": {"biological_target": "CtNbr1-FW", "assay": "SPR analysis of CtNbr1-FW with CtAms1 protein", "parameters": "species or system Chaetomium thermophilum", "conditions": "Biacore T200, 25 °C, GST-CtNbr1(635–775) captured by anti-GST on CM5 chip, about 200 RU, 10 mM HEPES, pH 7.4, 150 mM NaCl, 0.05% Tween 20, CtAms1 protein 50 to 1.56 nM twofold dilutions, 1:1 binding model, performed once, read-out: dissociation constant (KD)", "excerpt": "as §1, §2"}, "CtNbr1": {"tested_on": "CtNbr1", "assay": "Pil1 co-tethering assay, candidate cargo proteins with CtNbr1", "assay_type": "cell-based, Chaetomium thermophilum", "conditions": "Pil1-mCherry-CtNbr1 bait, mECitrine prey, co-expressed in S. pombe, EMM medium, 30 °C; fluorescence microscopy; two independent experiments", "excerpt": "To investigate whether this receptor-cargo relationship is conserved in C. thermophilum, we examined whether CtNbr1 interacts with the Ct homologs of NVT cargo proteins using an imaging-based Pil1 co-tethering assay. In this assay, CtNbr1 was fused to the C-terminus of the Pil1-mCherry fusion protein, which localizes to distinctive filamentary structures. A cargo protein of interest was fused to the N-terminus of fluorescent protein mECitrine. The two proteins were co-expressed in S. pombe and if they interact with each other, co-localization on filamentary structures would be observed. […] To map which domain is responsible for binding CtAms1, a series of CtNbr1 fragments were analyzed (Fig. 1b).\nPlasmids expressing proteins with mECitrine/mCherry/GFP tags under the control of Pnmt1 or P41nmt1 promoter were constructed using modified pDUAL vectors. […]\nas §3, §4"}, "S. pombe cells": {"tested_on": "S. pombe cells", "assay": "Localization / vacuolar entry of CtAms1-mCherry in S. pombe", "assay_type": "cell-based, Schizosaccharomyces pombe", "excerpt": "Fig. 5 CtNbr1 mediates vacuolar targeting of CtAms1 via conventional autophagy machinery in S. pombe. a CtNbr1 interacts with SpAtg8 in Pil1 co-tethering assay. SpAtg8(1−115), which lacks the G116 residue required for lipidation, was fused to Pil1-mCherry and co-expressed with mECitrine-tagged CtNbr1 in S. pombe. Pil1-mCherry served as a negative control. Cells were observed by fluorescence microscopy. Bar, 3 μm. b CtNbr1 can enter the vacuole through autophagy in nitrogen-starved S. pombe cells. CtNbr1-mCherry was expressed in wild-type and atg5Δ cells. SpCpy1-Venus was used as a vacuole lumen marker. Cells were collected before (0 h) and 8 h after nitrogen starvation (-N) and examined by fluorescence microscopy. […] C-terminally mCherry-tagged CtAms1, CtAms1-G2A, and CtAms1-G3A were individually co-expressed with untagged CtNbr1 in wild-type S. pombe cells. CtAms1-mCherry alone expressed in wild-type cells served as a negative control. CtAms1-mCherry was also co-expressed with untagged CtNbr1 in atg5Δ cells. Cells were collected before (0 h) and 3 h after nitrogen starvation and were examined by fluorescence microscopy. Bar, 3 μm. The data shown are representative of two independent experiments with similar results. Source data are provided as a Source Data file.\nPlasmids expressing mECitrine- or mCherry-tagged CtNbr1 under the control of the P41nmt1 promoter and plasmids expressing mCherry-tagged CtAms1 under the control of the P41nmt1 promoter were constructed using modified stable integration vectors. Plasmids were linearized by NotI digestion and integrated at the ura4 or ade6 locus of the S. pombe genome.\nFission yeast cells were grown to mid-log phase in EMM medium at 30 °C. Microscopy was performed using the DeltaVision PersonalDV system (Applied Precision) equipped with a mCherry/YFP filter set (Chroma 89006 set) and a Photometrics Evolve 512 EMCCD camera. Images were obtained with a 100 × 1.4NA objective and analyzed with the SoftWoRx software."}, "CtNbr1-FW-W763A": {"biological_target": "CtNbr1-FW-W763A", "assay": "SPR analysis of CtNbr1-FW-W763A with CtAms1 protein", "assay_type": "binding, Chaetomium thermophilum", "conditions": "Biacore T200, 25 °C, GST-CtNbr1 FW W763A mutant captured on CM5 chip, about 200 RU, 10 mM HEPES, pH 7.4, 150 mM NaCl, 0.05% Tween 20, CtAms1 50 to 1.56 nM, performed once", "excerpt": "as §1, §2"}}}
{"molecule": "FLAG2-His6 (FFH)-tagged CtAms1 (natural protein)", "values": [{"measurement": "Kd", "setting": "[1]", "value": 0.0034, "unit": "µM"}]}
{"molecule": "CtAms1(2–15) peptide", "values": [{"measurement": "Kd", "setting": "[2]", "value": 110, "unit": "µM"}, {"measurement": "Kd", "setting": "[3]", "value": 23, "unit": "µM"}]}
{"molecule": "B1", "values": [{"measurement": "stoichiometry N", "setting": "[4]", "value": 4}]}
{"molecule": "B2", "values": [{"measurement": "dissociation constant (KD)", "setting": "CtNbr1-FW-D654A", "value": "No binding"}, {"measurement": "binding to D654E mutant of CtNbr1 FW domain", "setting": "CtNbr1-FW-D654E", "value": "bound"}, {"measurement": "Kd", "setting": "CtNbr1-FW", "value": 0.0034, "unit": "µM"}, {"measurement": "interaction with CtNbr1", "setting": "CtNbr1", "value": "interacted"}, {"measurement": "localization of CtAms1 expressed alone", "setting": "S. pombe cells; no CtNbr1, nutrient-rich and nitrogen starvation (3 h), wild-type S. pombe, CtAms1-mCherry", "value": "diffuse cytoplasmic distribution"}, {"measurement": "CtNbr1-dependent vacuolar entry", "setting": "S. pombe cells; untagged CtNbr1 co-expressed, 3 h nitrogen starvation, atg5Δ S. pombe", "value": "abolished"}, {"measurement": "vacuolar entry on co-expression of CtNbr1", "setting": "S. pombe cells; untagged CtNbr1 co-expressed, 3 h nitrogen starvation, wild-type S. pombe", "value": "vacuolar entry"}, {"measurement": "cell periphery accumulation on co-expression of CtNbr1", "setting": "S. pombe cells; untagged CtNbr1 co-expressed, nutrient-rich conditions (0 h), wild-type S. pombe", "value": "cell periphery accumulation"}, {"measurement": "dissociation constant (KD)", "setting": "CtNbr1-FW-W763A", "value": "No binding"}]}
